The target of the experiment is TRPV6_(CysKO) D34C-R631C double mutant (rat) (UniProt Q9R186). In words: cross-linking.

Usually stoichiometry N stands for a count of units in the complex or per binding partner. Substance “TRPV6_(CysKO) D34C-R631C double mutant (from UniProt Q9R186 1-668) (natural protein)” yielded a stoichiometry N of 4.
